This note sets out measurements from paper PMC11929599.

What all share (test): two-hybrid
Assay [1] has as its target SePdx D28A fused to T25 (pKT25‐SePdx D28A) (Synechococcus elongatus PCC 7942).
In assay [2] the target is SePdx Q214A fused to T25 (pKT25‐SePdx Q214A) (Synechococcus elongatus PCC 7942).
The target of assay [3] is SePdx R189A fused to T25 (pKT25‐SePdx R189A) (Synechococcus elongatus PCC 7942).
In assay [4] the target is SePdx R96A fused to T25 (pKT25‐SePdx R96A) (Synechococcus elongatus PCC 7942).
Assay [5] concerns the target SePdx Y31A fused to T25 (pKT25‐SePdx Y31A) (Synechococcus elongatus PCC 7942).
The target in assay [6] is SePdx G299A fused to T25 (pKT25‐SePdx G299A) (Synechococcus elongatus PCC 7942).
Assay [7] deals with SePdx T5A fused to T25 (pKT25‐SePdx T5A) (Synechococcus elongatus PCC 7942).
Assay [8] concerns the target SePdx Y144A fused to T25 (pKT25‐SePdx Y144A) (Synechococcus elongatus PCC 7942).

Take “CpcA1 fused to T18C (pUT18C) (from UniProt P13530 1-163) (natural protein)”: the decrease of β‐galactosidase activity against WT SePdx stood at 67.6% in assay [1]; 40.3% in assay [2]; 60.8% in assay [3]; 65.1% in assay [4]; 46.3% in assay [5].

For the substance “PSI core protein PsaE fused to T18C (pUT18C) (from UniProt Q31NL7 1-75) (natural protein)”, the decrease of β‐galactosidase activity against WT SePdx is 12.2% in assay [6] and 27.2% in assay [8]. Also, the increase of β‐galactosidase activity against WT SePdx in assay [7] amounted to 3.19%.
